The results in this text go back to article doi:10.1101/2020.08.24.264606 (bioRxiv, 2020).

This experiment deals with CIP2A(1-560)-V5 (human, UniProt Q8TCG1-1 1-560). Description: pull-down.

B1: GST-NOCIVA (CIP2A 1-545 + 13 aa peptide) (natural protein)
chain: not shown
Turning to B1, the binding result is recorded as “binds”.
